This is an account of results in the domain aggregation screens of Martell et al. (2025).

Where only a bound is given, the exact number is not on record here.

The series is described as follows: soluble fraction after stress (log2 fold change); higher = more stays soluble; pooled small domains, quantitative proteomics. To be noted: stress: pH 4. In a few lines: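 Custom libraries of small protein domains were pooled and measured with high-throughput quantitative proteomics after pH 4 stress. The read-out is the fold change in the amount of each domain that stays soluble after the acid stress, taken as a measure of aggregation propensity. Fold changes are on a log2 scale, and higher values mean more of the domain stayed soluble.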
For “HMSDNLTIVRAVYSGLSQRQAAATYHVSRNTVSLLLRHARNRGWLTLEDLAQLDNAAFSKSL”, the “soluble fraction (log2)” value was 0.354. For “HMSDPFSPTTTLKNRAKSVLSVDSFEDFKLFIKKMWQEKKEGVYQNPNVETWKDWDNISVKDAKILISLI” the value was -0.327; for “HMSDPHEELMSRIARDLSIPLTRVVAEMNTIISKEFGGHIRPEGAVVILAKRSGVEFSDLLPALRENILK”, -0.852; for “HMSDQIQQIAERIAGLRDIAGYSVEELARELGISAEEYKRYESGEVDIPIGFLYKLANKYNVELTAILT”, -1.02. The figure for “HMSDRFLDQEGVALSTLRPSGTVVLDSGEHLDVVTRGEFIEQGERVKVIKAESTWYVVEQIN” is -0.317; for “HMSDRLRLGRRIRAARLEQNLSQAALAERLGISASYLNLLEHDRRSLTTVLLLKLAQVLGLELRDLAAG” it is 0.0304. As to “HMSDRLRPGDMVVVVGKKKRYPVFSAFDIDFVEAGDVGKVLTVKREEVVVGFPKKGEGTFTPSELNIAH”, the “soluble fraction (log2)” value was found to be 0.00331. For the sequence “HMSDTGQELHDALNMARRTLTILEEQAAGYTALTIPARLVLELEEKRKDVVRLETQIRSAATGTPG”, the “soluble fraction (log2)” value stood at 0.00666.

In the case of “HMSDTLPRLLWNFQMAKRLDEMNGAEKRRYQLVLIHPQASEKERDYASSFAHQARMLGIEVAIRDS”, the “soluble fraction (log2)” value was -0.139. The figure for “HMSDVVFRINANGLNVSGLANGERVSVYDTTGKLVTTAVSTQDNGTLNLPLKQSGGIYIARTQSGVSFKFT” is 0.108; for “HMSDYKSYLQELVQTDKKSLSYNVVKETGPAHDKTFEVEVEVDGIIYAHGVGKSKKEAEQNAAKNAIMISA” it is -0.24; for “HMSDYLGSLSHEEKMIFNHFDEDSSTIENMAKKTELKPELISQIFLNLELRGFLRQTEGGLYEKI” it is -1.13. As for “HMSDYYEVLGVTRQADAEEIKRAYRRKARQLHPDVAGPGHEEEFKEVTVAYEVLSDPEKRQAYDLGGQDAL”, the “soluble fraction (log2)” value was determined as 0.0614.

With “HMSEDAVKFRAAVEVENGLAQRNLNKNQAALILGVDRSYFTYIISGKKTPSPDMAKRIGLLLGFDWRVFYA”, the “soluble fraction (log2)” value is -0.324.

On to “HMSEEIKVPNFVGSTFEKAQALAQETGLEIARGEDVYSPDQEEGKITSQNPTADSVVSPGKLITVYVSKG”, for which the “soluble fraction (log2)” value amounted to 0.0365. For “HMSEIKDRLREARRNKGLSQAGLSKLLGVSQASIAAIESGRNKRPTNLVSIAKALDVSPYWLETGK” the value was 0.0733. For “HMSEITQTLSMIGKEVTLEIPDEKDKTKTTEVKGIVTEASFKDGTGKVKVNGEYYSIAYITSIRDT” the value was -0.545; for “HMSEIVEEQNTKLKQAVSKLSKRQQEVLYLKFEEGLDYEQISKIMDLKYQSVRNLVSTAIIKIKEH”, 0.0707. Take “HMSEKELTDLIERIKERRLKLEMSYQDLSDATGISKSTLQRYETGYIKKVPINQIEILAKALHTTPSYLMG”: the “soluble fraction (log2)” value came to 0.0791. The figure for “HMSEKIDINNSNELELKQLPLTNEQIKSLIEFRRLHGEIQNIYELKNIDFFNIEKVHELKAHIEIKKII” is -1.05; for “HMSELADDPVYTALEKAADKAGLQLTVRILNDLADAVLKRGKKKLTAAQAGKVIARAESELAKSRID” it is at least 0.43. “HMSELDASYLGQRVRYVSGFTETDPSEGLVEFRGSNWRARAEHPPLDHSGHWVIVKVESNTLWVEEKSN”: the “soluble fraction (log2)” value is 0.0761. Consider “HMSENEIDELRRRFAREAMALMERKGEEVSRTRLAAELSVARARIDAVFPEESDLLEAVTAEWFA”, for which the “soluble fraction (log2)” value was -0.799. For “HMSENEVQAKVKEIVDRYAGDKSALIAILQDVQDEYRYLPKEALVSIQQQMNIPLSRVYEVATFYDAFS” the value was -0.862. The figure for “HMSEPIYTQLKEILTQKIVNGEFPPGARLPSEYELTELYHISRSTVRLALKELEASGMIVRRRGKGTFVSS” is -0.0496. For “HMSEPRYRQLATILAQEIRSNHSAGDQLPSEQALAKRFEVNRHTVRRAVDELVAAGMVTRHQGWGTQVV” the value was 0.243.

Turning to “HMSEQGVITAKFASIVGNQNIQLVMFPDSVYLKGQVSSEEEKKRAETVASSLIQDRKIVNLIEFE”, the “soluble fraction (log2)” value was -0.638.

For the sequence “HMSEQIALQFAKAKQHHTGIALKGIEALELRYKGYTGKEIAALYHTSPKSVFSWISRAKQKLRQN”, the “soluble fraction (log2)” value is at least 0.43. With “HMSEQLHALIDRLDDIPDDELKKNWPGTLRDLVDVISAELHRQGIEPAQAGMLARKVAAAQAGYMG”, the “soluble fraction (log2)” value is -0.742. Turning to “HMSEQLKQIAERIKELRNIAGLGEEELAAKLDIPVDTYREYESGNVDIPVSFLYKISGMFNVELTAIL”, the “soluble fraction (log2)” value is -1.05.

Regarding “HMSEQLVGTVGHITVGTARTASPAEAKFLDAFEQPHYLLVEPIEPKDIFQQGDKVVLVKKQHHSWLATRYI”, the “soluble fraction (log2)” value worked out at 0.0779. The figure for “HMSEQTLEDVRRLIEHLPESQKEVVKMRYYQDLSFKEIADLKGISINTALGRMHYAINNMRKMAKEYGL” is -0.473. For “HMSEQVQLQAQVEDDLIGKRLDQVVAQLFPDYSRSRLQGWIKDGSLTVDGESRRPRDKMMGGEVVRVEATL” the value was -0.347. For “HMSEQVTMIDVEGKTETEAKKALEDLGLKVEITYESADAAAGTVIGQDVKAGSTVSEGSRVTLTVSGQ” the value was -0.211; for “HMSERQTGTVKWFNNAKGFGFITMADRPDDIFVHFRAIQGDGYRSLNEGEEVEFSLVEGPKGLQAEEVTK”, -1.09. For the sequence “HMSESAGKAFDLLFYLAKAGETVSLARLSRETGMNKATALRYLNVLESKGVVERSKLGWTLGLSLFELGSK”, the “soluble fraction (log2)” value is -0.508. For “HMSESIFTLYGDEKFEKIRYYLKERGFITLDALARFDFDELLFVPGVSELLISEAKQLFSRYDTSSLAAKE” the value was -0.921; for “HMSETAEFIIQVNGKVRAKLQLPTDISKEEIQKLALADENVQKYLNGEPRKIIFPPNTRLVSIV”, -0.0446.

On to “HMSETEEWTVEGGQAGDRIDRHVAAMLGDDVSRSQVQQWIRAGRVTVNGRAVKPSDTVEEGDRVAVDLPEP”, for which the “soluble fraction (log2)” value is -0.397. With “HMSETVYQYVARQLRDMLGSGEIPVGQQLPTYRELAKRFQVSLSVIQRAMRQLKAEAVVSIAHGQGVKAVR”, the “soluble fraction (log2)” value was -0.176. For “HMSEVPVLVAKTDIKELELIDDRKVTLINVPQKFKMPGSFNSPEEVYNTIAAVPIKEGEQITKPRVTWP” the value was -0.443. As to “HMSEVSEILTRARFFAGVKTDAELSTLLKIPYGTLIGWKTRKNIPESRIAQMALILGIRRDTLIPA”, the “soluble fraction (log2)” value is -0.11. The figure for “HMSEYIFGKNVVKEAFNNPSRIEEIYVLDKNMEFVSLAKKYHIKYTVITSSEMNKMVSGNHQGVVALVK” is -0.264; for “HMSFDENEALRKALDVFWEKGYDGTSLSDLTEAMGINKPSLYATFGNKDQLFLKAIEMYENR” it is -1.44; for “HMSFDTFKKVFSNLVEKSGYSDAEIARRLGVNRSTISRWKSGEQSPPLPKVKEIANFFGVSPMVFVD” it is 0.0603. For “HMSFFNGNQMKILRKKLQLNQEEMGEKLGIKKSYVSQLENNRKEITEEIDQILQELEQEYQDKM” the value was -0.0582. The figure for “HMSFGESLKKLSIALNSIRKLATTDAGKKDPKVADLLGQIRDTFNSYRTHLRKNYPDLYSGIKNQL” is -0.311; for “HMSFGKKLRSLRQEKKLSQVELSKKLNVTSQALSQYELGKRIPDAEMIIRIADFFDVSVDYLLDRT” it is -0.137.

As to “HMSFGWESLENKEGVADTDLHPSGWVRIEDSRIFVVSEGDFINKGSKVTVLTVDGNRVVVRELI”, the “soluble fraction (log2)” value was -1.79.

As for “HMSFNISPTKKLILELIMNGTAAVEAIAVKAGISKGMAYNHLRELRSMGYITDEGGYKITDSGRLAV”, the “soluble fraction (log2)” value is -0.399.

As for “HMSFNNHYEILQVQPSADREVIEAAAKALLKKHHPDLGGRNTITSHIVQAKKVLTDTSQRADFDARLRERL”, the “soluble fraction (log2)” value came to 0.165. For “HMSFNSQENKSVLWQFLLENNFFIGLSDKKFNKVKDIFEKNIQSISIVNDSISNKNKILIQKMMEELELL” the value was -1.46; for “HMSFPDTYFKGNKVIGLSYNDLKKFLNNAGYSKFDEEVEEWGEKRVSIEDDMVDFYLEDDKVVSI”, -0.356.

For “HMSFPFLMPNLEGLQLDQVRVILEENGLEIGQENYQPDSKFGPGTIINHQPSVDTVVQTGQKVNLQISGTD”, the “soluble fraction (log2)” value is -1.14. For “HMSFSSLSNDILSEIQKDNNITYDELSEKLQKDRATIYRNMKKLVENGLLKRVGGRKSGHWEIIE” the value was at least 0.43. With “HMSFVDFYGLFTTELQRLAELPVTADELIKNTGLHKSQLTDWLKRAEEDGVVKKLNRPVRYQVEKK”, the “soluble fraction (log2)” value is -0.989. For “HMSGAQIQQLLESRAPQPGMNPDMIVRRKTYMNNVFNALKGALLRVANGSSPEEVKTEVDAAIQVDPDKL” the value was -0.151. For “HMSGEVLTAVVPETASGERLDKVLPQIFPPYSRSQLQTWLKEGRVTLDREIPAARLAVIGGETLRLEVPSL” the value was -0.0494. The figure for “HMSGFFVYPNPAKSNIIHFPNKKSFYIYDTSGRLLIEGKGKDFIDVSTLDRGVYLLKTFENDIVKIII” is -0.585; for “HMSGGIVRLAVKPWGEVFVDGASRGITPPLKQLTLDAGVHRIEIRNPAGPSWTKDVDVVAGQPTTVSHRF” it is 0.0131. On to “HMSGITDIITDGKATSRPVVVTDGGHIRVLSPYTSFAIYTLGGMSLPTESRLEPGIYIVVVDSNAVKVAV”, for which the “soluble fraction (log2)” value is -0.408. The figure for “HMSGLGELTPRELEVLELMAQGLSNSQIAGRLFLSGAAVAKHVSSIFSKLGFEPGDENRRVRAILAFLNR” is -0.751; for “HMSGLLTTSKLAQKHKMKTEPMLEKLTAAGYLEWRDDKHSLTEQGKKAGGQFKTGRFGAYFLWPEDLV” it is 0.116. For “HMSGPDGLTEREIEVLRLLASGLSNRAIGERLYISTNTAANHVRSILLKTGAANRTQAAMYAADHEML” the value was 0.0798; for “HMSGPFTELTPREREILSHLAEGQSNKVIARHLQISDGTVKLHVKAILRKLEVHSRVEAAVMAVEHGV”, 0.0256.

Turning to “HMSGPMVPNVVGLSEEMARALLSDYSITIKHAHDGVIPKDRVASQLPLATTHAKVGSSVVLTIS”, the “soluble fraction (log2)” value amounted to 0.238. The figure for “HMSGQLTEEQVKQIVTTAVKNSSGSTLTAAEVSRIVSTAVANNLTADQVKTVVNNALAGITTDISTLKA” is 0.202; for “HMSGSFDVTLDYLNSLRNLYPAIDVEQEFRKMYAWLDSNPKNRKTERGIKRFITGWLGRAQDKAP” it is -0.9.
